Biological target: the molecule itself
Assay: crystal structure

B1: RecE^606 (P658L) (residues 606-866 of E. coli RecE protein with the P658L mutation) (domain or fragment, UniProt P15032 606-866, looked up)
chain: ENYHAGPGISKSQLDDIADTPALYLWRKNAPVDTTKTKTLDLGTAFHCRVLELEEFSNRFIVAPEFNRRTNAGKEEEKAFLMECASTGKTVITAEEGRKIELMYQSVMALPLGQWLVESAGHAESSIYWEDPETGILCRCRPDKIIPEFHWIMDVKTTADIQRFKTAYYDYRYHVQDAFYSDGYEAQFGVQPTFVFLVASTTIECGRYPVEIFMMGEEAKLAGQQEYHRNLRTLSDCLNTDEWPAIKTLSLPRWAKEYAND
In the case of B1, the “stoichiometry N” value is reported as 4.

Source: paper PMC2688778 (Structure (London, England : 1993), 2009)
